Data from patent publication US20260209365A1, “ANTI-COMMON GAMMA CHAIN PROTEINS AND COMPOSITIONS OF MATTER” (SINOMAB BIOSCIENCE LIMITED, priority 2023, published 2026).
Numbering of substitutions follows the chain as printed.

T1: human γc on cells (KHYG-1, Ramos, HPB-ALL, Jurkat, PBMC) (human) (UniProt P31785)
T1 sequence (looked up): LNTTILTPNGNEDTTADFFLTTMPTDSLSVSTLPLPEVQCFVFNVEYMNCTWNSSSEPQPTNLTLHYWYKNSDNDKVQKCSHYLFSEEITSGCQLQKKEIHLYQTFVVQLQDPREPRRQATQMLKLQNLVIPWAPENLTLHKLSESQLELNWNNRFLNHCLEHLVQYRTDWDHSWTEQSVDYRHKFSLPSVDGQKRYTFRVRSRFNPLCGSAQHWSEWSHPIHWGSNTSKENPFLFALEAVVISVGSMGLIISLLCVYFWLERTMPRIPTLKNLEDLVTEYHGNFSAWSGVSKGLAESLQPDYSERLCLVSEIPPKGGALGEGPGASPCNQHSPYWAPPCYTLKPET

B1: SM-05K: anti-γc antibody; CDR SEQ ID NO: 164, 166, 168, 172, 174, 176 (antibody, V domains shown)
VH: EVQLLESGPELVKPGASVKISCKTSGYSFTDYFMNWVKQSHGESLEWIGGIDPNTGGVTYNQKFKGKATLTVDKSASTAYMELRSLTSEDSAVYYCARRRRYYGYAMDYWGQGTSVTVSS
VL: DVLMTQTPLSLPVSLGDQASISCRSSQSIVHSNGNTYLEWYLQKPGQSPKLLIYKVSNRFSGVPDRFSGSGSGTDFTLKISRVEAEDLGVYFCSQSTHVPWTFGGGTKLEIK
modifications: left off: another chain or arm of the molecule; small tags and cut ends
B2: SM-05J: anti-γc antibody; CDR SEQ ID NO: 148, 150, 152, 156, 158, 160 (antibody, V domains shown)
VH: EVQLQQSGPELVKPGASVKISCKTSGYTFTEYTMHWVKQSHGKSLEWIGGIDPYNGGITYNQRFKGKATLTVDKSSSTAYMELRSLTSEDSAVYYCARRRLYYGYALDYWGQGTSVTVSS
VL: B1 VL with L3V, F92Y, S94F, S96G, T97S, W101F, G105S
modifications: left off: another chain or arm of the molecule; small tags and cut ends
B3: SM-05L: anti-γc antibody; CDR SEQ ID NO: 180, 182, 184, 188, 190, 192 (antibody, V domains shown)
VH: B2 VH with Y54N, N55S, I58A, R63K, L83V, L107M
VL: B1 VL with D17G, S28N, W101F, T102A, G105S
modifications: left off: another chain or arm of the molecule; small tags and cut ends
B4: SM-05D: anti-γc antibody; CDR SEQ ID NO: 52, 54, 56, 60, 62, 64 (antibody, V domains shown)
VH: B2 VH with E1Q, I58V, L83F, Y105N
VL: B1 VL with V2I, L3V, S32R, F92Y, S94F, S96G, T97S, W101F, G105S
modifications: left off: another chain or arm of the molecule; small tags and cut ends
B5: SM-05B: anti-γc antibody; CDR SEQ ID NO: 20, 22, 24, 28, 30, 32 (antibody, V domains shown)
VH: B2 VH with E1Q, S21F, K43E, Y54N, N55T, I58A, R63K, V72A, L101R
VL: B1 VL
modifications: left off: another chain or arm of the molecule; small tags and cut ends
B6: SM-05C: anti-γc antibody; CDR SEQ ID NO: 36, 38, 40, 44, 46, 48 (antibody, V domains shown)
VH: B2 VH with E1Q, S21F, K43E, Y54N, N55T, I58A, R63K, V72A, L101R, L107M
VL: B1 VL with L3V, I29L, E39H, V90I, F92Y, S94F, S96D, T97S, W101F, G105S
modifications: left off: another chain or arm of the molecule; small tags and cut ends
B7: SM-05J anti-γc ScFv (scFv, part only; not given: linker and E-tag, not shown: small tags and cut ends)
scFv (part 1 of 2), part: B2 VH
scFv (part 2 of 2), part: DVVMTQTPLSLPVSLGDQASISCRSSQSIVHSNGNTYLEWYLQKPGQSPKLLIYKVSNRFSGVPDRFSGSGSGTDFTLKISRVEAEDLGVYYCFQGSHVPFTFGSGTKLEIKR
B8: SM-05K anti-γc ScFv (scFv, part only; not given: linker and E-tag, not shown: small tags and cut ends)
scFv (part 1 of 2), part: B1 VH
scFv (part 2 of 2), part: B7 scFv (part 2 of 2), part with V3L, Y92F, F94S, G96S, S97T, F101W, S105G
B9: SM-05G anti-γc ScFv (scFv, part only; not given: linker and E-tag, not shown: small tags and cut ends)
scFv (part 1 of 2), part: B2 VH with S21F, K43E, Y54N, N55T, I58V, R63K, V72A, K74S, S85N, L101R
scFv (part 2 of 2), part: B7 scFv (part 2 of 2), part with S14N, I29L, E39D, D75Y, K79N, I80F

These molecules were tested on IL-15 induced STAT5 phosphorylation (assay: Inhibition of IL-15 induced STAT phosphorylation in KHYG-1 NK cell line, flow cytometry). Settings: ScFv 10 μg/ml.
Assay type: cell-based, human
Text: (§1) Cells were harvested and stained with FITC conjugated anti-pSTAT6, PE conjugated anti-pSTAT3 or APC con jugated anti-pSTAT5 antibodies for flow cytometry analyses. In some embodiments, the purified ScFv could block the IL-4 induced STAT6 phosphorylation in cell culture (e.g., Ramos). In some embodiments, the purified ScFv could block the IL-7 induced STAT5 phosphorylation in cell culture (e.g., HPB-ALL). In some embodiments, the purified ScFv could block the IL-9 induced STAT3 phosphorylation in cell culture (e.g., Jurkat). In some embodiments, the purified ScFv could block the IL-15 induced STAT5 phosphorylation in cell culture (e.g., KHYG-1). In some embodiments, the purified ScFv could block the IL-21 induced STAT3 phosphorylation in cell culture (e.g., Ramos).
(§2) Flow cytometry was employed to measure the percentage of p-STAT expressing cells after cytokine induction and anti-γc ScFv treatment. KHYG-1 (Creative Bioarray, Shirley, NY 11967, USA) was starved in IL-2 free RPMI1640 (ATCC modification, ThermoFisher Scientific, Waltham, MA, USA) with 10% FBS (ThermoFisher Scientific) for 2 days. Ramos, HPB-ALL and Jurkat cell lines were used directly without starvation. Cells were replenished with fresh RPMI1640 medium and pretreated with anti-γc ScFv (10 μg/mL) for an hour. After treatment with TL-4 (10 ng/ml, Sino Biological), IL-7 (50 ng/ml, Sino Biological), IL-9 (50 ng/ml, Sino Biological), IL-15 (10 ng/ml, Sino Biological) or IL-21 (10 ng/ml, Sino Biological) for 15 min, cells were fixed in 4% paraformaldehyde (PFA, Sigma, St. Louis, Missouri, USA) for 10 min, permeabilized in 0.1% Triton X-100 (Sigma) for 10 min and then stained with FITC conjugated anti-pSTAT6, PE conjugated anti-pSTAT3 or APC con jugated anti-pSTAT5 (all diluted in 1:100, Biolegend, San Diego, California, USA) for 30 min at 37° C. Percentage of p-STAT expressing cells was measured by BD FACSLyric™ Clinical Flow Cytometry System (BD Biosciences, New Jersey, USA). Data were analyzed by Flowjo (version 10, BD).
(§3) Different cell lines were used for testing. KHYG-1 refers to the NK cell line harvested from the peripheral blood of a person with aggressive NK cell leukemia. This cell line could respond to IL-2 and IL-15 stimulation in-vitro [Yamasaki et al., Leuk Res., […]; 28 (10): 1023-31]. Ramos is a human Burkitts Lymphoma cell line (CRL-1596™) and could be used as a model for IL-4 and IL-21 studies [Hui et al., Front Immunol., 2022; 13: 919854]. Jurkat is a human T lymphoblast cell line (Clone E6-1, TIB-152™) and is widely used in the T cell studies of IL-9 function. HPB-ALL is a T cell leukemia model established from the peripheral blood of a child with ALL and thymoma at diagnosis in 1973 and could be used for IL-7 functional studies.

Row | Molecule | p-STAT5 inhibition (%)
1 | B1 | 42.97%
2 | B2 | 42.71%
3 | B3 | 49.10%
4 | B4 | 48.59%
5 | B5 | 47.06%
6 | B6 | 46.04%

What follows are molecules tested on IL-4 induced STAT6 phosphorylation (assay: Inhibition of IL-4 induced STAT phosphorylation in Ramos B cell line, flow cytometry). Settings: ScFv 10 μg/ml.
Assay type: cell-based, human
Text: as §1, §2, §3

Row | Molecule | p-STAT6 inhibition (%)
7 | B2 | 82.22%
8 | B3 | 73.54%
9 | B4 | 63.77%
10 | B5 | 76.95%
11 | B6 | 45.99%

The molecules below were run against T1, human γc on cells (KHYG-1, Ramos, HPB-ALL, Jurkat, PBMC) (human) (assay: cell-based or functional assay). Settings: not given.

Row | p-STAT3 inhibition (%), IL-9 induced, Jurkat T cells, flow cytometry | p-STAT3 inhibition (%), IL-21 induced, Ramos B cells, flow cytometry | p-STAT5 inhibition (%), IL-7 induced, HPB-ALL T cells, flow cytometry | p-STAT5 inhibition (%), IL-15 induced, KHYG-1 NK cells, flow cytometry | p-STAT6 inhibition (%), IL-4 induced, Ramos B cells, flow cytometry | Molecule
12 | 100% | 75.8% | 98.1% | 42.7% | 82.2% | B7
13 | – | 90.8% | 86% | 43% | – | B8
14 | – | – | 0% | – | – | B9

The molecules below were run on IL-7 induced STAT5 phosphorylation (assay: Inhibition of IL-7 induced STAT5 phosphorylation in HPB-ALL T cell line, flow cytometry). Settings: ScFv 10 μg/ml.
Assay type: cell-based, human
Text: as §1, §2, §3

Row | Molecule | p-STAT5 inhibition (%)
15 | B1 | 86.02%
16 | B2 | 98.10%
17 | B3 | 100%
18 | B4 | 99.80%
19 | B5 | 94.50%
20 | B6 | 100%

The molecules below were run on IL-21 induced STAT3 phosphorylation (assay: Inhibition of IL-21 induced STAT phosphorylation in Ramos B cell line, flow cytometry). Settings: ScFv 10 μg/ml.
Assay type: cell-based, human
Text: as §1, §2, §3

Row | Molecule | p-STAT3 inhibition (%)
21 | B1 | 90.77%
22 | B2 | 75.77%
23 | B3 | 26.03%
24 | B4 | 30.00%
25 | B5 | 13.85%
26 | B6 | 29.10%

What follows are molecules tested on IL-9 induced STAT3 phosphorylation (assay: Inhibition of IL-9 induced STAT3 phosphorylation in Jurkat T cell line, flow cytometry). Settings: ScFv 10 μg/ml.
Assay type: cell-based, human
Text: as §1, §2, §3

Row | Molecule | p-STAT3 inhibition (%)
27 | B2 | 100%
28 | B3 | 92.36%
29 | B4 | 100%
30 | B5 | 82.64%
31 | B6 | 97.92%
